Source: the DeepSol protein solubility set

Assay: soluble on expression in E. coli; label from the status in PepcDB or PDB records

Soluble on expression in E. coli, not soluble:
MGSDKIHHHHHHMNKIFKCFPDGKFKVLTMSYDDGKLSDKKLVSIFNKYGIKGTFHINSGLIGSYNRLTKAEIKTLYSGHEVSAHTLTHPTIARCPMEQVTKEILMDRENLEEIVGYPVRGLSYPNGSYNDSIRNLLKYLGIEYSRIVGNSDSFDLPSDFTAWKATCHHNHNLMEHAKEFVFLYKKQYLYMMYVWGHSYEFDRDNNWHLIENFCSYISNKDDIWYATNIEIVDYKNVLDNLKFSAKSDFVYNPSAKSAWITVNDEIVEIKGGTQLKLS
MGSDKIHHHHHHMNKVLNKESAPAYRLTPEWELYTSVVTTSLNNSFYEQEEERIERVRTLIGKCNPLFVAQLAAYARETMNLRSIPLVMAVELARIHQGDNLVKRVTARTVRRADEITELLACYQQANRRTGTKKLNRLSKQLQAGLQDAFNTFDAYQFAKYNRSAEVCLKDALFLVHPKAKDERQQEIFNGIVNDNLPVPYTWETELSALGQRTFATEEERRKAFRAKWEELIDSGKLGYMALLRNLRNILEAEVSADHILTVGKRLSSEKAVENSRQLPFRFLAAYRELSKTPSLYATMLMTALERAVQVSARNITGFDESTRVLIACDVSGSMQCPVSAKSKVLYYDIGLLLGMLLKSRCKQVMTGIFGDRWKIINLPDTGILSNVDAFYKREGEVGYSTNGYLVIKDLIDRKAQMDKIMMFTDCQLWNSHSDLQITDLWRKYKKICPAAKLYLFDLSGYGNTPLDITRDDVFLIAGWSDKIFDILSAIDKGNDALQEIKKIVV
MGSDKIHHHHHHMNLLEVKSLKARFKRGGFALESVNLTLKKGECVSIVGESGSGKSFLAQLIVRLFPQGSVEVEEGEILFLGENLLDFSQERLEGVRGSEIGFVFQEPLISLNPLHTIEKQLAEAILLHRSLSREELKREIGALYASVGLEALKGRAKIYPHELSGGQRQRVMIAMALANSPKLLIADEPTTALDVSVQKQILDLLFRLKEERGVSLLLISHDLGVVRHYADKVYVMKGGKVVESASKEELFAHPKHPYTQALLSSLHLPLKESPPSRGEILLEAENLDLSFVLKKDWLGRPKEYLRALSSISLRLREGENLGIVGESGSGKSTLALALCKLLSFEGRLRMGHEEMAKMEESRFRPFRSMIQIVFQDPYGSLSPRLSIEEILREGLEVHFPAQKESFERRIIEALEGVGLESSYRYRYPNELSGGQRQRVAIARALILRPKILILDEPTSALDRSIEHQVVALLLELQKRYNLTYLCISHDLRVIGALSDRVAVMKGGRLIEEGETSLILQSPTHPYTQELIGSLLL
MGSDKIHHHHHHMNLNALIDFMLVANNEGLGKASRASGISKATLSRRIADLEEQLGVRLIERSARGLKLTEAGEMLMARTEGPLGEVAEAMTATRDGVATPRGRLRVASPVLFSQLAMGRIGAGFYAAYPEVIIEVTAEDRLVDLVEEQFDVAIRINPDPDSRLVGRCFARDRLVVVAAPELPRPMPGAIRQTPAIVTSSFQPTHWKLDNGHLVLKPIPKLWFSSLMMVRDAAVAGGGAALIPQSIAWSQLASGQLVQWGTVSGAEPELWVLHTSRRLVSPKVRAFVDFICASNPDMSLVLKG
MGSDKIHHHHHHMNLRRRGIVVSFHSNMVTVEDEETGERILCKLRGKFRLQNLKIYVGDRVEYTPDETGSGVIENVLHRKNLLTKPHVANVDQVILVVTVKMPETSTYIIDKFLVLAEKNELETVMVINKMDLYDEDDLRKVRELEEIYSGLYPIVKTSAKTGMGIEELKEYLKGKISTMAGLSGVGKSSLLNAINPGLKLRVSEVSEKLQRGRHTTTTAQLLKFDFGGYVVDTPGFANLEINDIEPEELKHYFKEFGDKQCFFSDCNHVDEPECGVKEAVENGEIAESRYENYVKMFYELLGRRKK
MGSDKIHHHHHHMNLTGCGEKFYQHCKVILSEFEWATYEISYNQQYPEGELKLNTPMSFSNIFLQHIISDFIEKYPSIKIDLFMTDQLLDVNQHKFDLTIRLDGSAPSLANSKILNTYQRYLYATPEYFNQHGLPTSLEELKEHKFLIYYQDSRHKKLIFQKDQKEVSFNCFPVMTCNNGELLLDMCLKDHGIVFLPEFIAEPYYKEGKLQKCLEDYTSQPLHLYVTWPNRKILSKKVKLFIDFLTHQIIPIK
MGSDKIHHHHHHMNNIIATILKYAGLEGKAVIPLKGATSSYVFRAGDSVFRIHTNPAWLEQEPDLVAHEVFALRATGRLGPDVENYQLTWEGEIPPWIQMTCLPGEVRLEPLNRAYLKQLAKTLVAIHQLPVPEARYQYAPYVTKRTVPFWAVQKEMWQRAVAEPPATSQQVRFIHRDFHPVNVLYESAEKYNVVDWINGCVGPIEADVAHCRLNLMLLESVEAADQFLAEYIAYSGFSYDRKWDLTAVFDFEPDTLNVYPGWKAYGKANISQGNVRERMENIVLKVYENDESGY
MGSDKIHHHHHHMNPPKRLLVIHRALAPYRIELLNTLSAAFDTHIYFEFASPIEQRFDAGELAKRVHFQSSVLPPAPKIPGLKNFRPYAASLVRSLRPDVVLCSEFNLLTLTLTAASRLFSPKTKLYVLCDDNEQMAEAELHYGRGLKHRMLSYVEGVILCDSRACDLYASRFATLDRERFVYLPIVQDEKVLRPLYEQVFGIGRDLRHALIPAGARMILYVGRLSEEKNLPALIDNLSTLPDDVHLVIVGDGPMQSALMNQVQATGHPERIIFAGKKEGAELYAYYTQADCLVLPSMRECFGSVVNEALIAGVPVVCSDIAGASCLVTESNGRTFSPMLPNALSQACNDLLGSIAPFCGDSLRPSLMPFTFERAIAPVLSLLSR
MGSDKIHHHHHHMNPQTRKRQNLTAVYAALLQLMSQKPLSRISITELCQHAQVSRTYFYRNFANFDQIILAYQKQTILQYLRQLPRQSKVKLQVLMTQYFTLMQQMAATNALLIKNEKTQIFIQSFEAVFALLIKQDRIIGSSNTALRQPYYTAYFSGAVINMLVHWQQNGMVETPAYLAQQVTRFTLRDNESRS
MGSDKIHHHHHHMNQAMDTKQIAPFTLALPEGEALPLVCDSPHSGTFYPADFGAVVAPERLRGGEDTHVDALWEAVPRVGGTLLAATFPRVYIDPNRMLDDIDPAQLEGPWPTPLAPGEKTRLGYGLIWSNVDAATPIYDRKLTVAEVQRRINRYYRPYHAALTEAVEGAYQRFGAVWHLNLHSMPNNAYERLKIQSPRPLADFVLGDRDGTTCEPGLVDLVERELREKGYTVARNDPYKGVQLIAQIGRPAERRNSLQIEIRRPLYMEEGTRERNEGFATLQRDLTLLTLRIAEYVRRGV
MGSDKIHHHHHHMNQDGASPLSETAQPFLQVVGVHKRFTGVHALRGVSLTFERGQIYHLLGENGCGKSTLIKIISGAQPPDQGELVIEGVRHAQLSPLESLAAGIETVYQDLSLLPNMSVAENVALTAELAAHAGKLARTFDRRALARTAARALEAVGLPGSADFQATLIEQLPLATRQLVAIARAIASEAKFVIMDEPTTSLTQKEVDNLIAVLANLRAHGVTVLFVSHKLDECYAIGGEVIVLRDGQKMAQGPIAQFTKARLSELMTGRELSNERYREAGHAQDVVLELRGLTRAGQFSDVSLSLHGGEILGVTGLLDSGRNELARALAGVAPAHAGEVLLDGHAIALRTPSDAKRNRIGYVPEDRLNEGLFLDKPIRDNLITAMISSLRDRFGQIDRARAQALAQQTVKELQIATAGIDKPVQSLSGGNQQRVLIGRWLAIDPRVLILHGPTVGVDVGSRDVIYRIMQRLSQRGIGIILISDDLPELLQNCDRILMMKKGRVASEYRADALDEADLYHALLSEAA
MGSDKIHHHHHHMNQDLLHKYFKGETSVDEEKRILNWVDESEENRKTLQKERMLFDIALFTDSKRKMREKAGAGARIIPMLRWSARIAAAVIVAVSCGFLINEYQYDKLAQLQTVTVPAGQRAQITLADGTKVWLNSESTLSYRSDFGRRDRDVELDGEAYFEVAKNKEIPFYVNTETNQVRVVGTHFNVCAYKGSNEFETTLVEGIVDIYAYDNERPLTRLTKNEFFGSYQGKYKKAVLPSYDYLRWREGLYCFDDSPFSCILTKLEKYYNVKITVENPKVLNYRCTGKFKEQDGVEHILKVIQKDHPFTYSISEEGDSIRIE
